Results as given in paper PMC5862903.

Experiments:
Assay in all cases: ELISA
Conditions in all cases: 0.5 μg coated receptor, read off a plot
[1] = target: Manduca sexta aminopeptidase N 1 (APN1), recombinant
[2] = target: Manduca sexta CR12 CAD fragment corresponding to cadherin repeat 12 (CAD-CR12)
[3] = target: Manduca sexta alkaline phosphatase (ALP), recombinant

Cry1Ab wild type toxin (from UniProt P0A370) G439D
response ([1]; toxin 6.25 nM, parent: est. 0.27): 0.09 ABS (490 nm)
response ([1]; toxin 12.5 nM, parent: est. 0.48): 0.12 ABS (490 nm)
response ([1]; toxin 25 nM, parent: est. 0.95): 0.27 ABS (490 nm)
response ([1]; toxin 50 nM, parent: est. 1.6): 0.61 ABS (490 nm)
response ([1]; toxin 100 nM, parent: est. 2.1): 1.1 ABS (490 nm)
response ([2]; toxin 6.25 nM, parent: est. 0.46): 0.12 ABS (490)
response ([2]; toxin 12.5 nM, parent: est. 0.76): 0.2 ABS (490)
response ([2]; toxin 25 nM, parent: est. 1.3): 0.45 ABS (490)
response ([2]; toxin 50 nM, parent: est. 2.0): 0.76 ABS (490)
response ([2]; toxin 100 nM, parent: est. 2.4): 1.2 ABS (490)
response ([3]; toxin 6.25 nM, parent: est. 0.23): 0.03 ABS (490)
response ([3]; toxin 12.5 nM, parent: est. 0.39): 0.05 ABS (490)
response ([3]; toxin 25 nM, parent: est. 0.75): 0.13 ABS (490)
response ([3]; toxin 50 nM, parent: est. 1.5): 0.34 ABS (490)
response ([3]; toxin 100 nM, parent: est. 2.2): 0.68 ABS (490)
